Target: recombinant trimeric HA of A/New Caledonia/20/1999 (H1N1) (Influenza A virus A/New …, UniProt Q6WG00)
Assay: cell-based or functional assay

Row | Binder | HI activity, minimum HI concentration, NC20 virus [µg/mL] | NI activity, EC50 (NI-ELLA), NC20 virus [mg/L] | NT activity, minimum virus-neutralizing concentration, NC20 virus [µg/mL]
1 | F11 IgA1 polymer (antibody, V domains shown) VH: QVQLVQSGAEVKRPGSSVRVSCRTSGGSFTSFAISWVRQAPGQGLEWMGRITRILGVPNYAQKFQGRVTITADMPTTTAYLDLTNLRSEDTAVYYCARDSGTSHGDFDYWGQGTLVTVSS VL: EIVLTQSPVTLSLSPGERATLSCRASQNVINSLVWYQQKPGQAPRLLIYGASNRATGIPARFRGSGSGTDFTLTIDSLEPEDIAVYYCQQRGTWLWSFGQGTKVEIK | 62.5 | 0.106 | 15.8
2 | F11 IgA1 monomer (antibody, V domains shown) VH: QVQLVQSGAEVKRPGSSVRVSCRTSGGSFTSFAISWVRQAPGQGLEWMGRITRILGVPNYAQKFQGRVTITADMPTTTAYLDLTNLRSEDTAVYYCARDSGTSHGDFDYWGQGTLVTVSS VL: EIVLTQSPVTLSLSPGERATLSCRASQNVINSLVWYQQKPGQAPRLLIYGASNRATGIPARFRGSGSGTDFTLTIDSLEPEDIAVYYCQQRGTWLWSFGQGTKVEIK | 62.5 | 0.148 | 28.1
3 | F11 IgA2m2 polymer (antibody, V domains shown) VH: QVQLVQSGAEVKRPGSSVRVSCRTSGGSFTSFAISWVRQAPGQGLEWMGRITRILGVPNYAQKFQGRVTITADMPTTTAYLDLTNLRSEDTAVYYCARDSGTSHGDFDYWGQGTLVTVSS VL: EIVLTQSPVTLSLSPGERATLSCRASQNVINSLVWYQQKPGQAPRLLIYGASNRATGIPARFRGSGSGTDFTLTIDSLEPEDIAVYYCQQRGTWLWSFGQGTKVEIK |  | 0.0162 | 5.57
4 | F11 IgA2m2 monomer (antibody, V domains shown) VH: QVQLVQSGAEVKRPGSSVRVSCRTSGGSFTSFAISWVRQAPGQGLEWMGRITRILGVPNYAQKFQGRVTITADMPTTTAYLDLTNLRSEDTAVYYCARDSGTSHGDFDYWGQGTLVTVSS VL: EIVLTQSPVTLSLSPGERATLSCRASQNVINSLVWYQQKPGQAPRLLIYGASNRATGIPARFRGSGSGTDFTLTIDSLEPEDIAVYYCQQRGTWLWSFGQGTKVEIK | 31.3 | 0.0617 | 
